Marks after values point to notes of the source that are not given here.
Key:
[1] = BTK FAC plasma stability assay, PBS buffer arm; assay type: physicochemical; conditions: for Plasma stability (h) PBS: incubation to 24 h
Summary of the method: (§1)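 Stability in PBS buffer or EDTA-treated plasma is followed over 24 h at 38 °C with shaking. Protein precipitation with acetonitrile (glyburide 0.2 µM as internal standard) stops each timepoint, and LC-MS/MS gives analyte-to-standard area ratios.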

[2] = BTK FAC plasma stability assay, mouse plasma; assay type: in vitro ADME
Summary of the method: as §1

[3] = BTK FAC plasma stability assay, rat plasma; assay type: in vitro ADME
Summary of the method: as §1

[4] = BTK FAC plasma stability assay, dog plasma; assay type: in vitro ADME
[5] = BTK FAC plasma stability assay, cyno plasma; assay type: in vitro ADME, cynomolgus monkey
BTK C481S = molecular target: T1, BTK C481S (Homo sapiens, UniProt Q06187, C481S); test: PD screen in TMD8 BTK C481S mutant tumor-bearing mice, BTK levels and compound concentrations in blood and tumor; assay type: in vivo, mouse
T1 construct: endogenous in cells; host or cells: TMD8 BTK C481S mutant tumour xenografts in mice
Description: All animal studies were conducted in accordance with ethics and procedures covered by permit nos. BS-1975 issued by the Kantonales Veterinäramt Basel-Stadt and in strict adherence to guidelines of the Eidgenössisches Tierschutzgesetz and the Eidgenössische Tierschutzverordnung, Switzerland. All animals had access to food and water ad libitum and were identified with transponders. They were housed in a specific pathogen-free facility with a 12-h light/12-h dark cycle. For PD screen experiments in TMD8 BTK C481S mutant tumor-bearing mice, FAC was injected once. Animals were randomized into groups of 2 and tissue samples collected at day 0, 4, 7 and in some studies day 10 as well. Blood samples were collected and tumors were excised, weighed, frozen in liquid nitrogen and cryogenic dry pulverized with the CryoPrep™ system (model CP-02, Covaris). Concentrations of compounds in blood and tumors were determined by UPLC/MS-MS and BTK levels were analyzed by Meso Scale Discovery.

T1 sequence (Q06187 whole entry C481S): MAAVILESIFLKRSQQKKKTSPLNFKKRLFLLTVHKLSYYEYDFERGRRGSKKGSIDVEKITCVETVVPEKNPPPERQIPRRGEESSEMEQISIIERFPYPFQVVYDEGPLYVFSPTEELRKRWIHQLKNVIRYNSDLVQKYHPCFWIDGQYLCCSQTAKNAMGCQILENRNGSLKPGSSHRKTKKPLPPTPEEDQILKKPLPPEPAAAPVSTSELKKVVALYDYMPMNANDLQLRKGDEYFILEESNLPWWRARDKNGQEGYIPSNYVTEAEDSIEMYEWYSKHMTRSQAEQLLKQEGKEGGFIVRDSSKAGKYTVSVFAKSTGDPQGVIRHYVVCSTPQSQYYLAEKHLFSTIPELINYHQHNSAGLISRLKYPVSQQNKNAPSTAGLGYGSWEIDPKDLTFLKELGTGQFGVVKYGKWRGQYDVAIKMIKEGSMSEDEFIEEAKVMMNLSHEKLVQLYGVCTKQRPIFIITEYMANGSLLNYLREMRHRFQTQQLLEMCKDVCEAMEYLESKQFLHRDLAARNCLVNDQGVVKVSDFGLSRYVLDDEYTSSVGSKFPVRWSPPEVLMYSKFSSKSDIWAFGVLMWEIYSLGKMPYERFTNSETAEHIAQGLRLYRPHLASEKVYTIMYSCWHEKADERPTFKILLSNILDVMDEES

Structure (SMILES): CCCCCCCCCCCN(C(=O)CCCCCCCCCC(=O)O)C(CCC(=O)NCCOCCOCCOCCOCCOCCOCCOCCOCCOCCOCCOCCOCCC(=O)N(CC)CC(=O)OC(C)(C)c1ccc(C(=O)Nc2cc(F)cc(-c3ncnc4[nH]c(-c5ccc(CCN6CCC7(CC6)CCN(C(=O)c6ccc(OC)c(N8CCC(=O)NC8=O)c6)CC7)cc5)cc34)c2C)c(F)c1)C(=O)O (stereo not drawn) [Example A13, 50-Carboxy-2-(4-((3-(6-(4-(2-(9-(3-(2,4-dioxotetrahydropyrimidin-1(2H)-yl)-4-methoxybenzoyl)-3,9-diazaspiro[5.5]undecan-3-yl)ethyl)phenyl)-7H-pyrrolo[2,3-d]pyrimidin-4-yl)-5-fluoro-2-methylphenyl)carbamoyl)-3-fluorophenyl)-6-ethyl-2-methyl-4,7,47,52-tetraoxo-51-undecyl-3,10,13,16,19,22,25,28,31,34,37,40,43-tridecaoxa-6,46,51-triazadohexacontan-62-oic acid]
- % Release of degrader after 24 h PBS [1]: 1.4%
- Plasma stability (h) PBS [1]: >48 h
- % Release of degrader after 24 h mouse [2]: 3.7%
- Plasma stability (h) mouse ([2]; incubation to 24 h): >48 h
- % Release of degrader after 24 h rat [3]: 2%
- Plasma stability (h) rat ([3]; incubation to 24 h): >48 h
- Plasma stability (h) dog [4]: >48 h
- % Release of degrader after 24 h dog [4]: 2.7%
- Plasma stability (h) cyno [5]: >48 h
- % Release of degrader after 24 h cyno [5]: 2.5%
- Duration of BTK degradation in mouse ≥90% (BTK C481S; i.v., 50 umol/kg): 7 days

Structure (SMILES): CCCCCCCCCCCN(C(=O)CCCCCCCCCC(=O)O)C(CCC(=O)NCCOCCOCCOCCOCCOCCOCCOCCOCCOCCOCCOCCOCCC(=O)N1CCC(CC(=O)OC(C)(C)c2ccc(C(=O)Nc3cc(F)cc(-c4ncnc5[nH]c(-c6ccc(CCN7CCC8(CC7)CCN(C(=O)c7ccc(OC)c(N9CCC(=O)NC9=O)c7)CC8)cc6)cc45)c3C)c(F)c2)CC1)C(=O)O (stereo not drawn) [Example A21, 44-Carboxy-1-(4-(2-((2-(4-((3-(6-(4-(2-(9-(3-(2,4-dioxotetrahydropyrimidin-1(2H)-yl)-4-methoxybenzoyl)-3,9-diazaspiro[5.5]undecan-3-yl)ethyl)phenyl)-7H-pyrrolo[2,3-d]pyrimidin-4-yl)-5-fluoro-2-methylphenyl)carbamoyl)-3-fluorophenyl)propan-2-yl)oxy)-2-oxoethyl)piperidin-1-yl)-1,41,46-trioxo-45-undecyl-4,7,10,13,16,19,22,25,28,31,34,37-dodecaoxa-40,45-diazahexapentacontan-56-oic acid]
- % Release of degrader after 24 h PBS [1]: 0.2%
- Plasma stability (h) PBS [1]: >48 h
- % Release of degrader after 24 h mouse [2]: 1.9%
- Plasma stability (h) mouse ([2]; incubation to 24 h): >48 h
- % Release of degrader after 24 h rat [3]: 0.5%
- Plasma stability (h) rat ([3]; incubation to 24 h): >48 h
- Plasma stability (h) dog [4]: >48 h
- % Release of degrader after 24 h dog [4]: 0.3%
- Plasma stability (h) cyno [5]: >48 h
- % Release of degrader after 24 h cyno [5]: 0.4%
- Duration of BTK degradation in mouse ≥90% (BTK C481S; i.v., 50 umol/kg): <4 days

Structure (SMILES): CCCCCCCCCCCN(C(=O)CCCCCCCCCC(=O)O)C(CCC(=O)NCCOCCOCCOCCOCCOCCOCCOCCOCCOCCOCCOCCOCCC(=O)N[C@H](C)C(=O)OC(C)(C)c1ccc(C(=O)Nc2cc(F)cc(-c3ncnc4[nH]c(-c5ccc(CCN6CCC7(CC6)CCN(C(=O)c6ccc(OC)c(N8CCC(=O)NC8=O)c6)CC7)cc5)cc34)c2C)c(F)c1)C(=O)O (stereo partly drawn) [Example A17, (5R)-50-Carboxy-2-(4-((3-(6-(4-(2-(9-(3-(2,4-dioxotetrahydropyrimidin-1(2H)-yl)-4-methoxybenzoyl)-3,9-diazaspiro[5.5]undecan-3-yl)ethyl)phenyl)-7H-pyrrolo[2,3-d]pyrimidin-4-yl)-5-fluoro-2-methylphenyl)carbamoyl)-3-fluorophenyl)-2,5-dimethyl-4,7,47,52-tetraoxo-51-undecyl-3,10,13,16,19,22,25,28,31,34,37,40,43-tridecaoxa-6,46,51-triazadohexacontan-62-oic acid]
- % Release of degrader after 24 h PBS [1]: 1.2%
- Plasma stability (h) PBS [1]: >48 h
- % Release of degrader after 24 h mouse [2]: 2.3%
- Plasma stability (h) mouse ([2]; incubation to 24 h): >48 h
- % Release of degrader after 24 h rat [3]: 2.5%
- Plasma stability (h) rat ([3]; incubation to 24 h): >48 h
- Plasma stability (h) dog [4]: 33.3 h
- % Release of degrader after 24 h dog [4]: 3.7%
- Duration of BTK degradation in mouse ≥90% (BTK C481S; i.v., 25 umol/kg): 4 days

Structure (SMILES): CCCCCCCCCCCN(C(=O)CCCCCCCCCCO)C(CCC(=O)NCCOCCOCCOCCOCCOCCOCCOCCOCCOCCOCCOCCOCCC(=O)NCCC(=O)NCCC(=O)OC(C)(C)c1ccc(C(=O)Nc2cc(F)cc(-c3ncnc4[nH]c(-c5ccc(CCN6CCC7(CC6)CCN(C(=O)c6ccc(OC)c(N8CCC(=O)NC8=O)c6)CC7)cc5)cc34)c2C)c(F)c1)C(=O)O (stereo not drawn) [Example A5, 2-(4-((3-(6-(4-(2-(9-(3-(2,4-Dioxotetrahydropyrimidin-1(2H)-yl)-4-methoxybenzoyl)-3,9-diazaspiro[5.5]undecan-3-yl)ethyl)phenyl)-7H-pyrrolo[2,3-d]pyrimidin-4-yl)-5-fluoro-2-methylphenyl)carbamoyl)-3-fluorophenyl)-55-(11-hydroxy-N-undecylundecanamido)-2-methyl-4,8,12,52-tetraoxo-3,15,18,21,24,27,30,33,36,39,42,45,48-tridecaoxa-7,11,51-triazahexapentacontan-56-oic acid]
- % Release of degrader after 24 h PBS [1]: 0.1%
- Plasma stability (h) PBS [1]: >48 h
- % Release of degrader after 24 h mouse [2]: 2%
- half-life at 5 µM ([2]; incubation to 24 h): > 48 h
- % Release of degrader after 24 h rat [3]: 2.5%
- half-life at 5 µM ([3]; incubation to 24 h): > 48 h
- % Release of degrader after 24 h dog [4]: 1%
- half-life at 5 µM ([4]; read-out: Plasma stability (h) dog (converted)): > 48 h
- % Release of degrader after 24 h cyno [5]: 0.5%
- half-life at 5 µM ([5]; monkey, read-out: Plasma stability (h) cyno): > 48 h
- Duration of BTK degradation in mouse ≥90% (BTK C481S; i.v., 25 umol/kg): 10 days
- Duration of BTK degradation in mouse ≥90% (BTK C481S; s.c., 25 umol/kg): 10 days

Structure (SMILES): CCCCCCCCCCCN(C(=O)CCCCCCCCCC(=O)O)C(CCC(=O)NCCOCCOCCOCCOCCOCCOCCOCCOCCOCCOCCOCCOCCC(=O)N[C@@H](C)CC(=O)OC(C)(C)c1ccc(C(=O)Nc2cc(F)cc(-c3ncnc4[nH]c(-c5ccc(CCN6CCC7(CC6)CCN(C(=O)c6ccc(OC)c(N8CCC(=O)NC8=O)c6)CC7)cc5)cc34)c2C)c(F)c1)C(=O)O (stereo partly drawn) [Example A20, (6S)-51-Carboxy-2-(4-((3-(6-(4-(2-(9-(3-(2,4-dioxotetrahydropyrimidin-1(2H)-yl)-4-methoxybenzoyl)-3,9-diazaspiro[5.5]undecan-3-yl)ethyl)phenyl)-7H-pyrrolo[2,3-d]pyrimidin-4-yl)-5-fluoro-2-methylphenyl)carbamoyl)-3-fluorophenyl)-2,6-dimethyl-4,8,48,53-tetraoxo-52-undecyl-3,11,14,17,20,23,26,29,32,35,38,41,44-tridecaoxa-7,47,52-triazatrihexacontan-63-oic acid]
- % Release of degrader after 24 h PBS [1]: 0.2%
- Plasma stability (h) PBS [1]: >48 h
- % Release of degrader after 24 h mouse [2]: 0.5%
- Plasma stability (h) mouse ([2]; incubation to 24 h): >48 h
- % Release of degrader after 24 h rat [3]: 0.3%
- Plasma stability (h) rat ([3]; incubation to 24 h): >48 h
- Plasma stability (h) dog [4]: >48 h
- % Release of degrader after 24 h dog [4]: 0.4%
- Plasma stability (h) cyno [5]: >48 h
- % Release of degrader after 24 h cyno [5]: 0.2%
- Duration of BTK degradation in mouse ≥90% (days) (BTK C481S; i.v., 50 umol/kg): 7* days

Structure (SMILES): CCCCCCCCCCCN(C(=O)CCCCCCCCCC(=O)O)C(CCC(=O)NCCOCCOCCOCCOCCOCCOCCOCCOCCOCCOCCOCCOCCC(=O)NCc1cc(C(=O)OC(C)(C)c2ccc(C(=O)Nc3cc(F)cc(-c4ncnc5[nH]c(-c6ccc(CCN7CCC8(CC7)CCN(C(=O)c7ccc(OC)c(N9CCC(=O)NC9=O)c7)CC8)cc6)cc45)c3C)c(F)c2)ccn1)C(=O)O (stereo not drawn) [Example A26, 46-Carboxy-1-(4-(((2-(4-((3-(6-(4-(2-(9-(3-(2,4-dioxotetrahydropyrimidin-1(2H)-yl)-4-methoxybenzoyl)-3,9-diazaspiro[5.5]undecan-3-yl)ethyl)phenyl)-7H-pyrrolo[2,3-d]pyrimidin-4-yl)-5-fluoro-2-methylphenyl)carbamoyl)-3-fluorophenyl)propan-2-yl)oxy)carbonyl)pyridin-2-yl)-3,43,48-trioxo-47-undecyl-6,9,12,15,18,21,24,27,30,33,36,39-dodecaoxa-2,42,47-triazaoctapentacontan-58-oic acid]
- % Release of degrader after 24 h PBS [1]: 7%
- Plasma stability (h) PBS [1]: >48 h
- % Release of degrader after 24 h mouse [2]: 20.4%
- Plasma stability (h) mouse ([2]; incubation to 24 h): 30.5 h
- % Release of degrader after 24 h rat [3]: 7.6%
- Plasma stability (h) rat ([3]; incubation to 24 h): >48 h
- Plasma stability (h) dog [4]: 39.2 h
- % Release of degrader after 24 h dog [4]: 10.9%
- Duration of BTK degradation in mouse ≥90% (BTK C481S; i.v., 25 umol/kg): 7 days

Reference: US20240216513A1, “FATTY ACID-BIFUNCTIONAL DEGRADER CONJUGATES AND THEIR METHODS OF USE” (Novartis AG, priority 2021, published 2024)
